The assay concerns the target Aβ extracted from AD brain (human (endogenous in AD brain)). Description: immunoprecipitation and SDS-PAGE Western blot. Background: Immunoblotting shows a protein as a band on a membrane.

Take Aβ extracted from AD brain (peptide): the stoichiometry N was found to be 2.

One may read the stoichiometry N as a count of units in the complex or per binding partner.

The values above are taken from PMC4222117.
